Reference: patent US12129490B2, “Methods for generating hepatocytes and cholangiocytes from pluripotent stem cells” (UNIVERSITY HEALTH NETWORK, priority 2018, dated 2024)

B1: TGFβ2: TGFbeta family member (protein, UniProt P61812 303-414, looked up)
Transforming growth factor …: ALDAAYCFRNVQDNCCLRPLYIDFKRDLGWKWIHEPKGYNANFCAGACPYLWSSDTQHSRVLSLYNTINPEASASPCCVSQDLEPLTILYYIGKTPKIEQLSNMIVKSCKCS
modifications: Transforming growth factor beta-2
notes: TGFbeta family member
B2: TGFβ3: TGFbeta family member (protein, UniProt P10600 301-412, looked up)
Transforming growth factor …: ALDTNYCFRNLEENCCVRPLYIDFRQDLGWKWVHEPKGYYANFCSGPCPYLRSADTTHSTVLGLYNTLNPEASASPCCVPQDLEPLTILYYVGRTPKVEQLSNMVVKSCKCS
modifications: Transforming growth factor beta-3
notes: TGFbeta family member
B3: Wnt3A: wingless-type MMTV integration site family, member 3A factor, added to activin-induced EB cultures (protein, UniProt P56704 19-352, looked up)
Protein Wnt-3a: SYPIWWSLAVGPQYSSLGSQPILCASIPGLVPKQLRFCRNYVEIMPSVAEGIKIGIQECQHQFRGRRWNCTTVHDSLAIFGPVLDKATRESAFVHAIASAGVAFAVTRSCAEGTAAICGCSSRHQGSPGKGWKWGGCSEDIEFGGMVSREFADARENRPDARSAMNRHNNEAGRQAIASHMHLKCKCHGLSGSCEVKTCWWSQPDFRAIGDFLKDKYDSASEMVVEKHRESRGWVETLRPRYTYFKVPTERDLVYYEASPNFCEPNPETGSFGTRDRTCNVSSHGIDGCDLLCCGRGHNARAERRREKCRCVFHWCCYVSCQECTRVYDVHTCK
B4: EGF: Epidermal Growth factor (protein, UniProt P01133 23-1207, looked up)
Pro-epidermal growth factor: PQHWSCPEGTLAGNGNSTCVGPAPFLIFSHGNSIFRIDTEGTNYEQLVVDAGVSVIMDFHYNEKRIYWVDLERQLLQRVFLNGSRQERVCNIEKNVSGMAINWINEEVIWSNQQEGIITVTDMKGNNSHILLSALKYPANVAVDPVERFIFWSSEVAGSLYRADLDGVGVKALLETSEKITAVSLDVLDKRLFWIQYNREGSNSLICSCDYDGGSVHISKHPTQHNLFAMSLFGDRIFYSTWKMKTIWIANKHTGKDMVRINLHSSFVPLGELKVVHPLAQPKAEDDTWEPEQKLCKLRKGNCSSTVCGQDLQSHLCMCAEGYALSRDRKYCEDVNECAFWNHGCTLGCKNTPGSYYCTCPVGFVLLPDGKRCHQLVSCPRNVSECSHDCVLTSEGPLCFCPEGSVLERDGKTCSGCSSPDNGGCSQLCVPLSPVSWECDCFPGYDLQLDEKSCAASGPQPFLLFANSQDIRHMHFDGTDYGTLLSQQMGMVYALDHDPVENKIYFAHTALKWIERANMDGSQRERLIEEGVDVPEGLAVDWIGRRFYWTDRGKSLIGRSDLNGKRSKIITKENISQPRGIAVHPMAKRLFWTDTGINPRIESSSLQGLGRLVIASSDLIWPSGITIDFLTDKLYWCDAKQSVIEMANLDGSKRRRLTQNDVGHPFAVAVFEDYVWFSDWAMPSVMRVNKRTGKDRVRLQGSMLKPSSLVVVHPLAKPGADPCLYQNGGCEHICKKRLGTAWCSCREGFMKASDGKTCLALDGHQLLAGGEVDLKNQVTPLDILSKTRVSEDNITESQHMLVAEIMVSDQDDCAPVGCSMYARCISEGEDATCQCLKGFAGDGKLCSDIDECEMGVPVCPPASSKCINTEGGYVCRCSEGYQGDGIHCLDIDECQLGEHSCGENASCTNTEGGYTCMCAGRLSEPGLICPDSTPPPHLREDDHHYSVRNSDSECPLSHDGYCLHDGVCMYIEALDKYACNCVVGYIGERCQYRDLKWWELRHAGHGQQQKVIVVAVCVVVLVMLLLLSLWGAHYYRTQKLLSKNPKNPYEESSRDVRSRRPADTEDGMSSCPQPWFVVIKEHQDLKNGGQPVAGEDGQAADGSMQPTSWRQEPQLCGMGTEQGCWIPVSSDKGSCPQVMERSFHMPSYGTQTLEGGVEKPHSLLSANPLWQQRALDPPHQMELTQ
modifications: Pro-epidermal growth factor

Key:
[1] = tested on: hPSC-derived hepatoblast aggregates; assay: Growth factor addition to hepatoblast aggregates co-cultured on OP9 stroma; format: cell-based, human; details: for cholangiocyte branching: hepatoblasts co-cultured with OP9
From the text: To investigate the effect of Notch signaling on cholangiocyte development, we co-cultured the hepatoblast population (day 25) with OP9 stromal cells that are known to express different Notch ligands including Jagged-1^4,5. […] To overcome this problem, we generated 3D aggregates from the day 25 monolayer cells and cultured them on the OP9 stromal cells.

[2] = tested on: hESC-derived embryoid bodies; assay: Endoderm induction in hESC-derived embryoid bodies, flow cytometry; format: cell-based, human; details: day six EBs
Protocol: Similar to protocols using monolayer cultures^16, it involves specific steps that recapitulate the critical stages of liver development in the early embryo. EBs are formed from small aggregates by culture for 24 hours in low levels of BMP4, as previously described^18. The EBs are subsequently exposed to high concentrations of activin A (hereafter referred to as activin) for five days to induce definitive endoderm, a population defined by expression of the surface markers CXCR4, CKIT and EPCAM and the transcription factors SOX17 and FOXA2.
Addition of Wnt3A to the activin-induced EB cultures led to reproducible increases in the proportion of CXCR4^+, SOX17^+ and FOXA2^+ cells within the EBs (FIG. 1c). With the increase in CXCR4 expression, the proportion of CKIT^+CXCR4^+ and CXCR4^+EPCAM^+ cells increased to greater than 95% of the population. […] Endoderm induction in the EBs was influenced by the base culture media used. StemPro34 supported more efficient endoderm induction than neural basal media that we used previously (FIG. 1f). The induction of highly enriched endoderm is an important first step in the efficient and reproducible generation of hepatocyte-like cells from hPSCs.
Media was changed every 3 days.
Flow cytometric analyses were performed as described previously^45. […] Stained cells were analyzed using an LSRII flow cytometer (BD).

Molecule	cholangiocyte branching [1]	other results
B1	promote branching structures	
B2	promote branching structures	
B3		proportion co-expressing CXCR4 and CKIT or CXCR4 and EPCAM [2]: greater than 95%
B4		development of CK19+ clusters ([1]; OP9 co-culture): increase in the size
